Measured values from paper PMC12104086 (2025).

What was measured:
Test in all cases: SPR
[1] = biological target: T1, recombinant mouse cold-inducible RNA-binding protein (mouse, UniProt P60824 1-172)
T1 chain: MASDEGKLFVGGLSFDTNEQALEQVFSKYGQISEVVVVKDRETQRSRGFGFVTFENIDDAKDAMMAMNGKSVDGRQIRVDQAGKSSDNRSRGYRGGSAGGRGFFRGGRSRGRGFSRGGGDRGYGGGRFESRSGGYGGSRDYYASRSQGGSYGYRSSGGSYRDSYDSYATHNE

[2] = biological target: recombinant human histone H3 (human, UniProt P68431 1-136)
[3] = biological target: T2, recombinant human alphavbeta3 integrin (human, UniProt P06756 31-1048; P05106 27-718)
T2 chain 1: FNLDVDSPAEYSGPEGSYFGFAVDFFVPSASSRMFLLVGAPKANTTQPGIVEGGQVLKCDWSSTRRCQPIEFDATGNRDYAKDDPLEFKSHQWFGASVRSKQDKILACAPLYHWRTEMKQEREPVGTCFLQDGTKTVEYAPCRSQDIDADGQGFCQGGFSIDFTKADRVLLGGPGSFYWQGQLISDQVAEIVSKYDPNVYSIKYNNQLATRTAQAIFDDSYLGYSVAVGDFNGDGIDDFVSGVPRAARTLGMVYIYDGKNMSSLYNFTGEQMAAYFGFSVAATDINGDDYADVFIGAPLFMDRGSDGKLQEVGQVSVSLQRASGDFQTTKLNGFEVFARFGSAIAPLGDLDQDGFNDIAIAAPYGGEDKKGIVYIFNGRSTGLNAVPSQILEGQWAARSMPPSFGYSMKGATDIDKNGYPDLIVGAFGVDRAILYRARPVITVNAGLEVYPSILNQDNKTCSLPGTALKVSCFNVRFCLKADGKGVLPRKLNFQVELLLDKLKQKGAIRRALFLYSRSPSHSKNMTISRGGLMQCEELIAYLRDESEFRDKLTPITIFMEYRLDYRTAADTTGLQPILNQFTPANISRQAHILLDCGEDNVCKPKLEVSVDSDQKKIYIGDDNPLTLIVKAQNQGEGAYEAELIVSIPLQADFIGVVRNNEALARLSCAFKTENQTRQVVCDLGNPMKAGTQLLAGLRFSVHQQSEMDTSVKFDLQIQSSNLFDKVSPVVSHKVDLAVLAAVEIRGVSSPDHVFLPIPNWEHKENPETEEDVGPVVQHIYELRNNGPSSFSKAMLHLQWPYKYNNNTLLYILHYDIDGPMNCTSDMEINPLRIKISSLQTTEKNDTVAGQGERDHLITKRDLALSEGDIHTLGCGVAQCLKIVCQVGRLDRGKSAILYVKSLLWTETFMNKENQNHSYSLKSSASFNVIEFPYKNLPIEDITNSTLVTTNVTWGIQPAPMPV
T2 chain 2: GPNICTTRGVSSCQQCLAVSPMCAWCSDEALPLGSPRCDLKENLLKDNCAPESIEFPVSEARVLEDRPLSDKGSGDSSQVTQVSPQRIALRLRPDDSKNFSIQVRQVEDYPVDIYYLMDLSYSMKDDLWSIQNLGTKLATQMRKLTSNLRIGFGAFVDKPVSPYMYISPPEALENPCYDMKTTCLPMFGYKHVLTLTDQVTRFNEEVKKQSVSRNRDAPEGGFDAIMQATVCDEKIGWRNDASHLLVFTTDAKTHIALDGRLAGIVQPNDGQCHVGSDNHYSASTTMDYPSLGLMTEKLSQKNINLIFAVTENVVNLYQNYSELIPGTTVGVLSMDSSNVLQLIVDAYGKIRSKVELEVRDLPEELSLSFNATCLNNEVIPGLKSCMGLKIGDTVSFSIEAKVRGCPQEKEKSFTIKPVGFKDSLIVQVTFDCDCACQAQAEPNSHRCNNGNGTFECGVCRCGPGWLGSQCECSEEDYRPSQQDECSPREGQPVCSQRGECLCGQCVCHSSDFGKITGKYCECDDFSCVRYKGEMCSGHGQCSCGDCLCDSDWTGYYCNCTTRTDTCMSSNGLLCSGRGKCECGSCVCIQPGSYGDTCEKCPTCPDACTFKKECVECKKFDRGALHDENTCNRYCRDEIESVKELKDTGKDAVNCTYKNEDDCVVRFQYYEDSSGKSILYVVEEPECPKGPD

[4] = biological target: T3, recombinant human high mobility group box 1 (human, UniProt P09429 1-215)
T3 chain: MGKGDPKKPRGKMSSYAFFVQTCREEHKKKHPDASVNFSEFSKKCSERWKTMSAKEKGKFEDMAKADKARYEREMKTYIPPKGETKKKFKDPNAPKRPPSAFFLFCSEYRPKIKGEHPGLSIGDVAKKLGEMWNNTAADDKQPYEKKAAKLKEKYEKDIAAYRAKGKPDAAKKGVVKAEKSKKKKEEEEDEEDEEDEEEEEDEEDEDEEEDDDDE

Binder: GNFNSSNIMKTCLQNRGD [opsonic peptide 18]
- Kd [1]: 1.5 nM
- Kd [2]: 2.1 nM
- Kd [3]: 1.1 nM
- Kd [4]: 3.9 nM
